Results on seven proteins are retold here after article PMC8748919, “Dynamics and mechanism of dimer dissociation of photoreceptor UVR8” (Nature Communications, 2022).

Residue numbers refer to the chain shown, from its start. In names and notes the source's numbering stands.

The data set concerns the molecule itself. In words: SEC; dimer/monomer state of the purified protein before UV irradiation; 150 mM NaCl, 25 mM Tris-HCl, pH 8.0.

B1: UVR8 W92 single-Trp mutant (receptor, Arabidopsis thaliana, UniProt Q9FN03 1-440, looked up)
chain: MAEDMAADEVTAPPRKVLIISAGASHSVALLSGDIVCSWGRGEDGQLGHGDAEDRPSPTQLSALDGHQIVSVTCGADHTVAYSQSGMEVYSFGWGDFGRLGHGNSSDLFTPLPIKALHGIRIKQIACGDSHCLAVTMEGEVQSWGRNQNGQLGLGDTEDSLVPQKIQAFEGIRIKMVAAGAEHTAAVTEDGDLYGWGWGRYGNLGLGDRTDRLVPERVTSTGGEKMSMVACGWRHTISVSYSGALYTYGWSKYGQLGHGDLEDHLIPHKLEALSNSFISQISGGWRHTMALTSDGKLYGWGWNKFGQVGVGNNLDQCSPVQVRFPDDQKVVQVSCGWRHTLAVTERNNVFAWGRGTNGQLGIGESVDRNFPKIIEALSVDGASGQHIESSNIDPSSGKSWVSPAERYAVVPDETGLTDGSSKGNGGDISVPQTDVKRVRI
notes: UVR8, Arabidopsis thaliana; mutant plasmid built on the wild-type plasmid; also called W92F; source: E. coli BL21-DE3, purified (Ni-Sepharose, Source-15Q)
Turning to B1, the binding result is reported as “binds”.

B2: UVR8 W300 single-Trp mutant (receptor, Arabidopsis thaliana, UniProt Q9FN03 1-440, looked up)
chain: B1 chain with F92W, W300F
notes: UVR8, Arabidopsis thaliana; mutant plasmid built on the wild-type plasmid; also called W300F; source: E. coli BL21-DE3, purified (Ni-Sepharose, Source-15Q)
For the protein B2, the binding result is recorded as “binds”.

B3: UVR8 W198 single-Trp mutant (receptor, Arabidopsis thaliana, UniProt Q9FN03 1-440, looked up)
chain: B1 chain with F92W, W198F
notes: UVR8, Arabidopsis thaliana; mutant plasmid built on the wild-type plasmid; also called W198F; source: E. coli BL21-DE3, purified (Ni-Sepharose, Source-15Q)
As for B3, the binding result is on record as “binds”.

B4: UVR8 W337F (receptor, Arabidopsis thaliana, UniProt Q9FN03 1-440, looked up)
chain: B1 chain with F92W, W337F
notes: UVR8, Arabidopsis thaliana; mutant plasmid built on the wild-type plasmid; source: E. coli BL21-DE3, purified (Ni-Sepharose, Source-15Q)
As for B4, the binding result is “binds”.

B5: UVR8 W196 single-Trp mutant (receptor, Arabidopsis thaliana, UniProt Q9FN03 1-440, looked up)
chain: B1 chain with F92W, W196F
notes: UVR8, Arabidopsis thaliana; mutant plasmid built on the wild-type plasmid; also called W196F; source: E. coli BL21-DE3, purified (Ni-Sepharose, Source-15Q)
Turning to B5, the binding result was “binds”.

B6: UVR8 W144 single-Trp mutant (receptor, Arabidopsis thaliana, UniProt Q9FN03 1-440, looked up)
chain: B1 chain with F92W, W144F
notes: UVR8, Arabidopsis thaliana; mutant plasmid built on the wild-type plasmid; also called W144F; source: E. coli BL21-DE3, purified (Ni-Sepharose, Source-15Q)
B6: the binding result was “binds”.

B7: UVR8 W94F (receptor, Arabidopsis thaliana, UniProt Q9FN03 1-440, looked up)
chain: B1 chain with F92W, W94F
notes: as for B4
In the case of B7, the binding result is given as “binds”.
